Assay [1] deals with T1, ErbB-3 receptor-Ig fusion (human, UniProt P21860 20-643; P21860 20-636). Description: 125I-HRG-β1 177-244 displacement, ErbB-3-Ig on plate.
Assay [2] deals with T2, ErbB-4 receptor-Ig fusion (human, UniProt Q15303 26-651; Q15303 26-640). Description: 125I-HRG-β1 177-244 displacement, ErbB-4-Ig on plate.
The target of assay [3] is T1, ErbB-3 receptor-Ig fusion. Description: phage ELISA, competition with soluble ErbB-3-Ig; against wild-type HRG-β1 177-244 on phage. On the technique in general: ELISA stands for enzyme-linked immunosorbent assay.
Assay [4] addresses T2, ErbB-4 receptor-Ig fusion. Description: phage ELISA, competition with soluble ErbB-4-Ig; against wild-type HRG-β1 177-244 on phage.
Assay [5] concerns the target T1, ErbB-3 receptor-Ig fusion. Description: phage ELISA, competition with soluble ErbB-3-Ig; against HRG8.
Method: Microtiter plates (Nunc Maxisorp™ 96-well plates, Inter Med, Denmark) for phage ELISA were prepared as follows. The wells were precoated overnight with 0.5 μg of rabbit anti-human IgG (Fc gamma fragment-specific) antibodies (Jackson Immunoresearch, West Grove, Pa.) in 100 μL 50 mM NaCO₃ (pH 9.6). The wells were blocked for 30 minutes (min) with 200 μL PBS containing 0.1% bovine serum albumin (BSA) and rinsed with wash buffer (PBS containing 0.05% Tween 20™). The wells were then coated with 0.1 μg ErbB-2/3-Ig in binding buffer (PBS, 0.1% BSA, 0.05% Tween 20™) for 1 h, and washed again.
Following incubation for 2 h at room temperature, plates were washed extensively and treated with a 1:900 dilution of anti-M13 horseradish peroxidase conjugate (Pharmacia, Piscataway, N.J.) for 20 min. The amount of phage binding was determined by assaying horseradish peroxidase activity using o-phenylenediamine dihydrochloride) substrate solution (Sigma Chemical Company, St. Louis, Mo.).
Assay [6] concerns the target T2, ErbB-4 receptor-Ig fusion. Description: phage ELISA, competition with soluble ErbB-4-Ig; against HRG8.

Ends that are not written are not given here.

By EC50 is commonly meant the midpoint of the concentration-response curve. Read a high EC50 as lower potency in that assay.

T1 sequence (P21860 other isoform, or with tags, fused parts or gaps): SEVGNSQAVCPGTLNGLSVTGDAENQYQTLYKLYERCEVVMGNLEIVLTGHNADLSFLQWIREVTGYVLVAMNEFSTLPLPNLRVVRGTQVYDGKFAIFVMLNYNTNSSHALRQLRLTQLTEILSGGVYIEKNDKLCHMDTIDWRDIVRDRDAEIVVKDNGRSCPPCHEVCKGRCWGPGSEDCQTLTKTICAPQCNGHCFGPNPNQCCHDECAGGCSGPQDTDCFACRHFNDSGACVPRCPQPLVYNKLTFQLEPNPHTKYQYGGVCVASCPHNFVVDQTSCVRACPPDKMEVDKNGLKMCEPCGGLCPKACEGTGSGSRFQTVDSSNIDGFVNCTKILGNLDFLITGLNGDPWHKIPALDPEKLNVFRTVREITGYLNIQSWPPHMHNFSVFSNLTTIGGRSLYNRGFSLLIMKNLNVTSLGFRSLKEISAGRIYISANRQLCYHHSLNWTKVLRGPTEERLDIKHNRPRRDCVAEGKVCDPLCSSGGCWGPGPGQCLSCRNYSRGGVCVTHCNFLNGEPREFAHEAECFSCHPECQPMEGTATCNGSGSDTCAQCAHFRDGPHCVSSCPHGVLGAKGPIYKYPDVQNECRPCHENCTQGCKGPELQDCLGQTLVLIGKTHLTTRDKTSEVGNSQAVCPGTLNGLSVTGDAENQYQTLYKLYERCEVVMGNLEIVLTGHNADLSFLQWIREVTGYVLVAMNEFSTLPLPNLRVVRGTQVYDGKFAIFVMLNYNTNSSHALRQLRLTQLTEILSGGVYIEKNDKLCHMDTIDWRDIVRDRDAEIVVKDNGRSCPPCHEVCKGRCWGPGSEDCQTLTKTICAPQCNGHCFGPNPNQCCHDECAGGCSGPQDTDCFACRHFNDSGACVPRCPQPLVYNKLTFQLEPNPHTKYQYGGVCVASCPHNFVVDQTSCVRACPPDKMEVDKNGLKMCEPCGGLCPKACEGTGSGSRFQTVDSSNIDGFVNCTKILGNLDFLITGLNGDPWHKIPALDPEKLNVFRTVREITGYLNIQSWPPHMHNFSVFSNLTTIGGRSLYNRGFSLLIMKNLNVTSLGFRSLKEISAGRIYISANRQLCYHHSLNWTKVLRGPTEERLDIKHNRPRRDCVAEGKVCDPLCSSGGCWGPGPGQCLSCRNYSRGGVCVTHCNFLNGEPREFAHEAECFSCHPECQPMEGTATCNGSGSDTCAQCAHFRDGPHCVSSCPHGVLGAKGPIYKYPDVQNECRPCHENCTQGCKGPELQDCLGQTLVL
T2 sequence (Q15303 other isoform, or with tags, fused parts or gaps): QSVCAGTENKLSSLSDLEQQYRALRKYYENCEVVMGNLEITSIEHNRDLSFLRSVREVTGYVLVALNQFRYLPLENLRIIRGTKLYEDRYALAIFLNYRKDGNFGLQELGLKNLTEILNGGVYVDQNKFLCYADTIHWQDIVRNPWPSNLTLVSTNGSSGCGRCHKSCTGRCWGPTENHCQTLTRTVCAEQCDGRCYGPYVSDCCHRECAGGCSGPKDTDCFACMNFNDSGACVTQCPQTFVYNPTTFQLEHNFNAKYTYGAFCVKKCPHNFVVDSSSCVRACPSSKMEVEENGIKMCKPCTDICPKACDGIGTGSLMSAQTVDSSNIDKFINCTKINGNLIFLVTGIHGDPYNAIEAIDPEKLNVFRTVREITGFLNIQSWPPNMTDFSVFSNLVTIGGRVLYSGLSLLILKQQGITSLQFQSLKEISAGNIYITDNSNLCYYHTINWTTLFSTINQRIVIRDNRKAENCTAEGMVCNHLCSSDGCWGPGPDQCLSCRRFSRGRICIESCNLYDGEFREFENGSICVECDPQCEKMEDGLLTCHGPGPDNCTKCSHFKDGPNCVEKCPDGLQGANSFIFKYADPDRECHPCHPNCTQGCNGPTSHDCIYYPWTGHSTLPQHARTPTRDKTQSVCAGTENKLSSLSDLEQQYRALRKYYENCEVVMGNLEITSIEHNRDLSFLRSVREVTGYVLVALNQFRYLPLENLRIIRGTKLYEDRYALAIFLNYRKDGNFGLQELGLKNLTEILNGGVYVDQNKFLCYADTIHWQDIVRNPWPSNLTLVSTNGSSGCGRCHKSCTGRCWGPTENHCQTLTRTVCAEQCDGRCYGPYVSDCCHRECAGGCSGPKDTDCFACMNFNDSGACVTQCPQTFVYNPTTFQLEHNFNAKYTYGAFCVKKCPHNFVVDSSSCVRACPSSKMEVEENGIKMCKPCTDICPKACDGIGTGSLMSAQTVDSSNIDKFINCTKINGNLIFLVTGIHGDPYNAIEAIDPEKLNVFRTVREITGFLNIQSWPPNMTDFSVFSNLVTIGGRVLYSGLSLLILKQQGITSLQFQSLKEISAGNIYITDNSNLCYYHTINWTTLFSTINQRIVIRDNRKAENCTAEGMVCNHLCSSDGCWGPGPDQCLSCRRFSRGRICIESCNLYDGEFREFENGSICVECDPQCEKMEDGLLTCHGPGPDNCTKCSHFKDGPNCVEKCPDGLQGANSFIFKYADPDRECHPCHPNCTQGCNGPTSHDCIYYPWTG

Consider “Trx-HRG-β1 146-244 N192A fusion (from UniProt Q02297 146-244) (ligand)”, for which the EC50 in assay [1] was 1640 nM; in assay [2], 696 nM. In the same order, the values of “Trx-HRG-β1 146-244 F189A fusion (from UniProt Q02297 146-244) (ligand)” are 975 nM and 565 nM.

In the case of “Trx-HRG-β1 146-244 R207A fusion (from UniProt Q02297 146-244) (ligand)”, the EC50 stood at 245 nM in assay [1] and 24.3 nM in assay [2]. For the molecule “Trx-HRG-β1 146-244 G193A fusion (from UniProt Q02297 146-244) (ligand)”, the values for the EC50 in assay [1] and in assay [2] were 26.9 nM and 76.3 nM, respectively. Regarding “Trx-HRG-β1 146-244 H178A fusion (from UniProt Q02297 146-244) (ligand)”, the EC50 worked out at 476 nM in assay [1] and 138 nM in assay [2]. In the same order, the values of “Trx-HRG-β1 146-244 T217A fusion (from UniProt Q02297 146-244) (ligand)” are 145 nM and 32.7 nM.

Turning to “Trx-HRG-β1 146-244 G218A fusion (from UniProt Q02297 146-244) (ligand)”, the EC50 in assay [1] is 668 nM; in assay [2], 608 nM. On the same counts, the results for “Trx-HRG-β1 146-244 E215A fusion (from UniProt Q02297 146-244) (ligand)” are 156 nM and 104 nM. In the same order, the values of “Trx-HRG-β1 146-244 G194A fusion (from UniProt Q02297 146-244) (ligand)” are 1210 nM and 275 nM. In the same order, the values of “Trx-HRG-β1 146-244 S177A fusion (from UniProt Q02297 146-244) (ligand)” are 129 nM and 54.6 nM. Regarding “HRG-β1 177-244 L179V displayed on phage (Example 4 clone) (from UniProt Q02297 177-244) (ligand)”, the figures for the EC50 Mut/WT in assay [3] and in assay [4] were 1.5 and 1.6, respectively. In the same order, the values of “HRG-β1 177-244 H178D L179V displayed on phage (Example 4 clone) (from UniProt Q02297 177-244) (ligand)” are 2.2 and 2.

Regarding “Trx-HRG-β1 146-244 L179A fusion (from UniProt Q02297 146-244) (ligand)”, the EC50 turned out to be 394 nM in assay [1] and 51.7 nM in assay [2]. In the same order, the values of “Trx-HRG-β1 146-244 E195A fusion (from UniProt Q02297 146-244) (ligand)” are 42 nM and 13.2 nM. “HRG-β1 177-244 H178L displayed on phage (Example 4 clone) (from UniProt Q02297 177-244) (ligand)”: the EC50 Mut/WT amounted to 1.4 in assay [3] and 1.2 in assay [4]. Regarding “Trx-HRG-β1 146-244 K211A fusion (from UniProt Q02297 146-244) (ligand)”, the values for the EC50 in assay [1] and in assay [2] were 248 nM and 124 nM, respectively. As for “HRG-β1 177-244 H178L with 228-231 replaced by Met, displayed on phage (Example 4 clone) (from UniProt Q02297 177-227; Q02297 232-244) (ligand)”, the EC50 Mut/WT amounted to 6.4 in assay [3] and 1.7 in assay [4]. On the same counts, the results for “HRG-β1 177-244 H178W with 228-231 replaced by Met, displayed on phage (Example 4 clone) (from UniProt Q02297 177-227; Q02297 232-244) (ligand)” are 1.2 and 1.7. The molecule “Trx-HRG-β1 146-244 V199A fusion (from UniProt Q02297 146-244) (ligand)” came in with an EC50 in assay [2] of 246 nM. As for “HRG-β1 177-244 R207P displayed on phage (Example 4 clone) (from UniProt Q02297 177-244) (ligand)”, the EC50 Mut/WT came out at 6.1 in assay [3] and 1.3 in assay [4]. Take “Trx-HRG-β1 146-244 Y224A fusion (from UniProt Q02297 146-244) (ligand)”: the EC50 in assay [1] is 339 nM; in assay [2], 24.5 nM. In the same order, the values of “Trx-HRG-β1 146-244 P205A fusion (from UniProt Q02297 146-244) (ligand)” are 39.5 nM and 34.2 nM. In the same order, the values of “Trx-HRG-β1 146-244 F216A fusion (from UniProt Q02297 146-244) (ligand)” are 2550 nM and 173 nM. For “HRG-β1 177-244 H178E displayed on phage (Example 4 clone) (from UniProt Q02297 177-244) (ligand)”, the EC50 Mut/WT in assay [3] is 9.5; in assay [4] it was 1.7. For the molecule “Trx-HRG-β1 146-244 F229A fusion (from UniProt Q02297 146-244) (ligand)”, the EC50 came to 177 nM in assay [1] and 89.9 nM in assay [2]. In the same order, the values of “Trx-HRG-β1 146-244 K200A fusion (from UniProt Q02297 146-244) (ligand)” are 45.4 nM and 16.9 nM.

B1: HRG37 combination variant displayed on phage (ligand, not shown: large carriers; small tags and cut ends)
chain: WELVPCGWDREGFCVNGGECFMVKDLSNPSRYLCKCPNEFTGDRCQNYVIAS-{(GGGS)3-M13 pIII C‑terminal fragment from residue 323}
modifications: ends and bridges not checked
notes: monovalent phage display, pHRG8-g3 background
Turning to B1, in assay [5], the “EC50 (wt)/EC50 (mut)” value is 13 ratio.

B2: HRG-β1 EGF variant E2 displayed on phage (ligand, human, not shown: large carriers)
chain: SHLVKCAEKEKTFCVNGGECFMVKDYGYLMCKCPNEFTGDRCQNYVMASGGGSGGGSGGGS
notes: monovalent phage display
With B2, the “EC50 (wt)/EC50 (mut)” value in assay [5] is 28 ratio; in assay [6] it was 7.6 ratio.

B3: HRG-β1 EGF variant E8 displayed on phage (ligand, not shown: large carriers; small tags and cut ends)
chain: SHLVKCAEKEKTFCVNGGECFMVKDTKYRGCKCPNEFTGDRCQNYVMAS-{(GGGS)3-M13 pIII C‑terminal fragment from residue 323}
modifications: ends and bridges not checked
notes: monovalent phage display; library E carries the 202-204 deletion
Regarding B3, the “EC50 (wt)/EC50 (mut)” value in assay [5] stood at 17 ratio.

B4: HRG-β1 EGF variant A3 displayed on phage (ligand, human, not shown: large carriers)
chain: WELVPCAEKEKTFCVNGGECFMVKDLSNPSRYLCKCPNEFTGDRCQNYVMASGGGSGGGSGGGS
notes: as for B1
For B4, the results for the “EC50 (wt)/EC50 (mut)” value in assay [5] and in assay [6] were 0.96 ratio and 1.1 ratio, respectively.

B5: HRG90 (HRG-β1 EGF Met226Ile) displayed on phage (ligand, human, not shown: large carriers)
chain: SHLVKCAEKEKTFCVNGGECFMVKDLSNPSRYLCKCPNEFTGDRCQNYVIASGGGSGGGSGGGS
notes: monovalent phage display
As for B5, the “EC50 (wt)/EC50 (mut)” value in assay [5] worked out at 6.3 ratio.

B6: HRG-β1 EGF variant I1 displayed on phage (ligand, human, not shown: large carriers)
chain: SHLVKCAEKEKTFCVNGGECFMVKDLSNPSRYLCKCPNEFTGDRCQWYVIASGGGSGGGSGGGS
notes: as for B1
In the case of B6, the “EC50 (wt)/EC50 (mut)” value in assay [5] amounted to 13 ratio.

B7: HRG-β1 EGF variant B3 displayed on phage (ligand, human, not shown: large carriers)
chain: SHLVKCGEEREGFCVNGGECFMVKDLSNPSRYLCKCPNEFTGDRCQNYVMASGGGSGGGSGGGS
notes: as for B1
B7: the figures for the “EC50 (wt)/EC50 (mut)” value in assay [5] and in assay [6] were 4.7 ratio and 1.7 ratio, respectively.

B8: HRG-β1 EGF variant D4 displayed on phage (ligand, human, not shown: large carriers)
chain: SHLVKCAEKEKTFCVNGGECYRVKTLSNPSRYLCKCPNEFTGDRCQNYVMASGGGSGGGSGGGS
notes: as for B1
With B8, the figures for the “EC50 (wt)/EC50 (mut)” value in assay [5] and in assay [6] were 2.9 ratio and 5 ratio, respectively.

The values are drawn from patent US20030129688A1 (published 2003).
